Results taken from the supplement of paper PMC5998384.

Tests used:
[1] = tested on: HeLa Kyoto; assay: thermal stability score vs G1/S (z-score of summed log2 fold changes over temperatures); higher = more thermally stable than in G1/S
[2] = tested on: HeLa Kyoto; assay: melting temperature (median over replicates), in situ; higher = more thermally stable
[3] = tested on: HeLa Kyoto; assay: solubility change mitosis vs G1/S (difference of NP-40 vs SDS log2 ratios) (log2 ratio difference); higher = more soluble in mitosis
[4] = tested on: HeLa Kyoto; assay: solubility in G1/S (NP-40 vs SDS abundance) (log2 ratio); higher = more soluble; details: cell cycle stage: G1/S
[5] = cell cycle stage: early G1 (4.5 h after nocodazole release)
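Wherever melting temperature (median over replicates), in situ is given: HeLa Kyoto cells synchronized by double thymidine or nocodazole block, proteins quantified by TMT10plex mass spectrometry, three independent biological replicates.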
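Wherever solubility change mitosis vs G1/S (difference of NP-40 vs SDS log2 ratios) is given: synchronized HeLa Kyoto cells (double thymidine block for G1/S, nocodazole release for mitosis), protein amounts in NP-40 versus SDS lysates quantified by mass spectrometry, three biological replicates.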
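Wherever solubility in G1/S (NP-40 vs SDS abundance) is given: HeLa Kyoto cells arrested at G1/S by double thymidine block, proteins quantified by TMT10plex mass spectrometry in mild NP-40 versus SDS extracts, three biological replicates.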
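Wherever thermal stability score vs G1/S (z-score of summed log2 fold changes over temperatures) is given: synchronized HeLa Kyoto cells, proteins quantified by TMT10plex mass spectrometry, three biological replicates, mitosis taken 0.5 h after nocodazole release, G1/S directly after double thymidine block.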

Sequence	thermal stability score [1, 5]	thermal stability score ([1]; cell cycle stage: mitosis)	melting temperature ([2]; cell cycle stage: G1/S) [°C]	melting temperature ([2]; cell cycle stage: mitosis) [°C]	solubility change mitosis (log2) [3]	solubility in G1/S (log2) [4]
MEPAEQPSELVSAEGRNRKAVLCQRCGSRVLQPGTALFSRRQLFLPSMRKKPALSDGSNPDGDLLQEHWLVEDMFIFENVGFTKDVGNIKFLVCADCEIGPIGWHCLDDKNSFYVALERVSHE [RABIF]	0.827	0.411	52.2	51.7	-0.0782	0.225
MEPAPSEVRLAVREAIHALSSSEDGGHIFCTLESLKRYLGEMEPPALPREKEEFASAHFSPVLRCLASRLSPAWLELLPHGRLEELWASFFLEGPADQAFLVLMETIEGAAGPSFRLMKMARLLARFLREGRLAVLMEAQCRQQTQPGFILLRETLLGKVVALPDHLGNRLQQENLAEFFPQNYFRLLGEEVVRVLQAVVDSLQGGLDSSVSFVSQVLGKACVHGRQQEILGVLVPRLAALTQGSYLHQRVCWRLVEQVPDRAMEAVLTGLVEAALGPEVLSRLLGNLVVKNKKAQFVMTQKLLFLQSRLTTPMLQSLLGHLAMDSQRRPLLLQVLKELLETWGSSSAIRHTPLPQQRHVSKAVLICLAQLGEPELRDSRDELLASMMAGVKCRLDSSLPPVRRLGMIVAEVVSARIHPEGPPLKFQYEEDELSLELLALASPQPAGDGASEAGTSLVPATAEPPAETPAEIVDGGVPQAQLAGSDSDLDSDDEFVPYDMSGDRELKSSKAPAYVRDCVEALTTSEDIERWEAALRALEGLVYRSPTATREVSVELAKVLLHLEEKTCVVGFAGLRQRALVAVTVTDPAPVADYLTSQFYALNYSLRQRMDILDVLTLAAQELSRPGCLGRTPQPGSPSPNTPCLPEAAVSQPGSAVASDWRVVVEERIRSKTQRLSKGGPRQGPAGSPSRFNSVAGHFFFPLLQRFDRPLVTFDLLGEDQLVLGRLAHTLGALMCLAVNTTVAVAMGKALLEFVWALRFHIDAYVRQGLLSAVSSVLLSLPAARLLEDLMDELLEARSWLADVAEKDPDEDCRTLALRALLLLQRLKNRLLPPASP [TELO2]	-0.195	0.325	48.8	49.1	-0.103	-0.341
MEPATAPRPDMAPELTPEEEQATKQFLEEINKWTVQYNVSPLSWNVAVKFLMARKFDVLRAIELFHSYRETRRKEGIVKLKPHEEPLRSEILSGKFTILNVRDPTGASIALFTARLHHPHKSVQHVVLQALFYLLDRAVDSFETQRNGLVFIYDMCGSNYANFELDLGKKVLNLLKGAFPARLKKVLIVGAPIWFRVPYSIISLLLKDKVRERIQILKTSEVTQHLPRECLPENLGGYVKIDLATWNFQFLPQVNGHPDPFDEIILFSLPPALDWDSVHVPGPHAMTIQELVDYVNARQKQGIYEEYEDIRRENPVGTFHCSMSPGNLEKNRYGDVPCLDQTRVKLTKRSGHTQTDYINASFMDGYKQKNAYIGTQGPLENTYRDFWLMVWEQKVLVIVMTTRFEEGGRRKCGQYWPLEKDSRIRFGFLTVTNLGVENMNHYKKTTLEIHNTEERQKRQVTHFQFLSWPDYGVPSSAASLIDFLRVVRNQQSLAVSNMGARSKGQCPEPPIVVHCSAGIGRTGTFCSLDICLAQLEELGTLNVFQTVSRMRTQRAFSIQTPEQYYFCYKAILEFAEKEGMVSSGQNLLAVESQ [PTPN9]	1.02	-0.717	51.1	51.7	-0.094	-0.0379
MEPFTNDRLQLPRNMIENSMFEEEPDVVDLAKEPCLHPLEPDEVEYEPRGSRLLVRGLGEHEMEEDEEDYESSAKLLGMSFMNRSSGLRNSATGYRQSPDGACSVPSARTMVVCAFVIVVAVSVIMVIYLLPRCTFTKEGCHKKNQSIGLIQPFATNGKLFPWAQIRLPTAVVPLRYELSLHPNLTSMTFRGSVTISVQALQVTWNIILHSTGHNISRVTFMSAVSSQEKQAEILEYAYHGQIAIVAPEALLAGHNYTLKIEYSANISSSYYGFYGFSYTDESNEKKYFAATQFEPLAARSAFPCFDEPAFKATFIIKIIRDEQYTALSNMPKKSSVVLDDGLVQDEFSESVKMSTYLVAFIVGEMKNLSQDVNGTLVSIYAVPEKIGQVHYALETTVKLLEFFQNYFEIQYPLKKLDLVAIPDFEAGAMENWGLLTFREETLLYDSNTSSMADRKLVTKIIAHELAHQWFGNLVTMKWWNDLWLNEGFATFMEYFSLEKIFKELSSYEDFLDARFKTMKKDSLNSSHPISSSVQSSEQIEEMFDSLSYFKGSSLLLMLKTYLSEDVFQHAVVLYLHNHSYASIQSDDLWDSFNEVTNQTLDVKRMMKTWTLQKGFPLVTVQKKGKELFIQQERFFLNMKPEIQPSDTSYLWHIPLSYVTEGRNYSKYQSVSLLDKKSGVINLTEEVLWVKVNINMNGYYIVHYADDDWEALIHQLKINPYVLSDKDRANLINNIFELAGLGKVPLKRAFDLINYLGNENHTAPITEALFQTDLIYNLLEKLGYMDLASRLVTRVFKLLQNQIQQQTWTDEGTPSMRELRSALLEFACTHNLGNCSTTAMKLFDDWMASNGTQSLPTDVMTTVFKVGAKTDKGWSFLLGKYISIGSEAEKNKILEALASSEDVRKLYWLMKSSLNGDNFRTQKLSFIIRTVGRHFPGHLLAWDFVKENWNKLVQKFPLGSYTIQNIVAGSTYLFSTKTHLSEVQAFFENQSEATFRLRCVQEALEVIQLNIQWMEKNLKSLTWWL [LNPEP]	-1.44	-1.44	56.8	57.1	-0.15	0.198
MEPGPDGPAASGPAAIREGWFRETCSLWPGQALSLQVEQLLHHRRSRYQDILVFRSKTYGNVLVLDGVIQCTERDEFSYQEMIANLPLCSHPNPRKVLIIGGGDGGVLREVVKHPSVESVVQCEIDEDVIQVSKKFLPGMAIGYSSSKLTLHVGDGFEFMKQNQDAFDVIITDSSDPMGPAESLFKESYYQLMKTALKEDGVLCCQGECQWLHLDLIKEMRQFCQSLFPVVAYAYCTIPTYPSGQIGFMLCSKNPSTNFQEPVQPLTQQQVAQMQLKYYNSDVHRAAFVLPEFARKALNDVS [SRM]	0.149	0.82	51.8	51.9	-0.232	0.283
